Experimental findings from EP4737479A1 (Bio-Thera Solutions, Ltd., dated 2026) are described below.

The experiment concerns the target T1, antigen 4-1BB (Sino Biological, Cat. No. 10041-H08H) (UniProt Q07011 24-186).
T1 construct: Bought protein used as SPR analyte; also called CD137
The experiment in a line: SPR (Biacore T200), sample captured on the chip by Fc, 4-1BB as analyte.

T1 sequence (Q07011 24-186 limits assumed): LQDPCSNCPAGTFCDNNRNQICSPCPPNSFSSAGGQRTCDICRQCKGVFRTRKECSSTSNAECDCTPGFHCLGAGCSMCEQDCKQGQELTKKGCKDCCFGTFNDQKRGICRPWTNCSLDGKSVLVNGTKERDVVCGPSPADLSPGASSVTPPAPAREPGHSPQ

B1: Urelumab (antibody, V domains shown)
VH: QVQLQQWGAGLLKPSETLSLTCAVYGGSFSGYYWSWIRQSPEKGLEWIGEINHGGYVTYNPSLESRVTISVDTSKNQFSLKLSSVTAADTAVYYCARDYGPGNYDWYFDLWGRGTLVTVSS
VL: EIVLTQSPATLSLSPGERATLSCRASQSVSSYLAWYQQKPGQAPRLLIYDASNRATGIPARFSGSGSGTDFTLTISSLEPEDFAVYYCQQRSNWPPALTFGGGTKVEIK
Take B1: the Kd (usually a measure of binding affinity in units of concentration) worked out at 3.22 nM; the koff (as a rule, a measure of how fast the partners let go of each other) is 0.00159 s⁻¹; the kon (in general, the rate constant with which the complex forms) was 496000 M⁻¹ s⁻¹.
